Source: the supplement of paper PMC10724198
± gives the standard deviation of the averaged measurements.

test system: Saccharomyces cerevisiae; test: protein stability index of tFT-peptide fusion (C-terminal peptide) (PSI (0-1 scale)); higher = more stable (slower turnover); conditions: genetic background: wild type; temperature: 30 C
Experimental: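 Multiplexed protein stability (MPS) profiling in S. cerevisiae. Random 12-aa peptides (tFT-X12 library) are fused to the C-terminus of a sfGFP-mCherry tandem fluorescent timer, after mCherry and a GGGS linker. Cells are FACS-sorted into 8 mCherry/sfGFP bins and deep-sequenced. The protein stability index (PSI) is the read-weighted bin average, scaled from 0 (unstable) to 1 (stable). Only peptides with >10 reads are reported; cells were grown at 30 °C in SC-His with glucose.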
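Also: PSI is a weighted mean of sequencing reads over stability bins, variants kept only with over 10 reads, mCherry proximal and sfGFP distal, peptide attached via GGGS linker.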

In order of falling protein stability index:
1. FFERRLGYYSRM  0.85 ± 0.09
2. KQKQNKKKNNKT  0.843 ± 0.16
3. GALANPLGHSHL  0.792 ± 0.11
4. RLPVPAAFSSSI  0.79 ± 0.047
5. FNIIHKKNTKEI  0.778 ± 0.03
6. LSSCPRIMVPIT  0.777 ± 0.11
7. RAPRSPPPPALA  0.77114 ± 0.00071
8. NGILRGATYQDV  0.77 ± 0.067
9. KKNQKEKATSRK  0.769 ± 0.043
10. PLDLPPLPLPPP  0.763 ± 0.15
11. FPLPSPPRPFSF  0.761 ± 0.041
12. RREDWQEKRYGL  0.761 ± 0.083
13. GAWWRMEQAFGV  0.757 ± 0.034
14. NLMTPAWTNFSS  0.756 ± 0.077
15. HTEYQGAGIPDE  0.752 ± 0.037
16. GLSTPPSPALLR  0.748 ± 0.013
17. GSILPSGFLSFA  0.7472 ± 0.003
18. PWGGMNWGGLSV  0.745 ± 0.073
19. PLPRSPLHPSVP  0.74 ± 0.03
20. LGSSTGSVESLS  0.737 ± 0.048
21. LEGYFMLPRSAW  0.736 ± 0.065
22. PPPLACPSPPVT  0.734 ± 0.12
23. PYLLPPFLPSPP  0.732 ± 0.029
24. GENLGGDVFNIG  0.73 ± 0.0031
25. AGGGLGGGGGGP  0.729 ± 0.031
26. GGGSRLWGGGRV  0.728 ± 0.028
27. APGWNNMALDVD  0.728 ± 0.021
28. APPRPPPPSPIP  0.726 ± 0.057
29. SRRENEVIGGAE  0.725 ± 0.068
30. GPSVRSTARGPG  0.724 ± 0.12
31. KKKKKEEKKNDK  0.721 ± 0.0073
32. VNILKRQKRARG  0.72 ± 0.052
33. SLILSAGLGFFF  0.719 ± 0.095
34. DACWWVDDGGVV  0.719 ± 0.051
35. PFCTRRSVRYRS  0.719 ± 0.049
36. PSPPLPPPAPLL  0.718 ± 0.056
37. PPPPPPRFHALH  0.715 ± 0.021
38. SSSLLFVLGPSW  0.715 ± 0.034
39. LPLLPLPSLSPP  0.713 ± 0.035
40. PTSLPAPPRLPF  0.713 ± 0.023
41. GVLVGLGWGWGG  0.7135 ± 0.0011
42. ASRFSLPLLSLL  0.71 ± 0.14
43. PSPTPTMPPPPP  0.71 ± 0.01
44. QKVNKDTRTSEF  0.709 ± 0.014
45. PPPPPPPPPPSS  0.709 ± 0.13
46. PPPRPPPASPVP  0.708 ± 0.076
47. DHHGGTEPHRVP  0.7079 ± 0.0052
48. KKKIKKKSIKKT  0.7074 ± 0.0044
49. PSLPHSRPRTPT  0.707 ± 0.028
50. IRSVVLSSCWRG  0.706 ± 0.0097
51. GGGGGGPGGVLK  0.706 ± 0.092
52. SLRICGAFPRTF  0.705 ± 0.0092
53. PRFPLPPHPSPR  0.704 ± 0.03
54. PHPPPLTQTPHD  0.704 ± 0.014
55. QPPSPSLFFPRV  0.704 ± 0.016
56. RGGEGVWVVGRV  0.703 ± 0.075
57. SFSQTFSSLSSP  0.702 ± 0.054
58. VLDVRLGGRCGE  0.702 ± 0.072
59. RRDRFSLRGFTE  0.701 ± 0.013
60. PHPPCRPYPAGS  0.701 ± 0.031
61. KIHRNGNKKEKD  0.7 ± 0.013
62. WNWSIITTENKP  0.7 ± 0.064
63. RCLGSTCRFFTF  0.7 ± 0.065
64. CEHGGWYVGFCS  0.7 ± 0.008
65. LRNCSVSGSIEW  0.699 ± 0.019
66. RGLVRLIRGGYN  0.698 ± 0.18
67. ASLLGSSPPPFI  0.696 ± 0.072
68. EWTTTVLGGQLR  0.696 ± 0.027
69. PPGNPPPRRLTS  0.695 ± 0.053
70. LCLIGQPQTRVS  0.695 ± 0.17
71. GGCVGVLGGWGL  0.694 ± 0.0083
72. KKEKKKTKKWQE  0.694 ± 0.1
73. FAVLSFRFPGGL  0.693 ± 0.099
74. VCGGRQGGWGGW  0.693 ± 0.0098
75. EGTASGSSVRLE  0.693 ± 0.049
76. TLGKPVGLARLS  0.692 ± 0.035
77. LLPISFVSPPPG  0.6915 ± 0.0026
78. HEIRSQSFGLYV  0.687 ± 0.025
79. SSFSACPTKIII  0.686 ± 0.048
80. VCVSRGPGTSDA  0.685 ± 0.02
81. PPPPLLPPPIPL  0.6847 ± 0.0032
82. SPFLTPPPPRPA  0.682 ± 0.024
83. GYNLTNVIPGVG  0.681 ± 0.016
84. LSPLPTPLRPNS  0.68 ± 0.025
85. EGGRRHSVGEQE  0.679 ± 0.01
86. FILERSLLSLQG  0.678 ± 0.18
87. TSRPLHEQTVSP  0.677 ± 0.025
88. GGGVGGPGGVLK  0.675 ± 0.075
89. IGAHTRRRVNGA  0.675 ± 0.096
90. PPPPPPSPLGPP  0.674 ± 0.057
91. ARASPPARRSPT  0.673 ± 0.058
92. ASFPPPPAAPPP  0.673 ± 0.093
93. IKKITKTKPNHN  0.673 ± 0.053
94. PPLLPRLLTPTP  0.671 ± 0.087
95. PPPPPPPYPLIP  0.67 ± 0.013
96. IADRLAAIPMRY  0.669 ± 0.011
97. CAWLCVRFAGVG  0.668 ± 0.062
98. PPNTSVPSSLGR  0.667 ± 0.038
99. TQKESEKLNMSK  0.667 ± 0.064
100. PPLLPPPHPFPP  0.6656 ± 0.0053
101. PSPPPPLAPCLP  0.666 ± 0.038
102. LPPRPPRPPPSP  0.666 ± 0.019
103. GVKMVHERHNRV  0.665 ± 0.057
104. CGGDGRTPTTHT  0.665 ± 0.019
105. SLLTLVIPTLFS  0.665 ± 0.0048
106. PVPLPSSSPSPY  0.663 ± 0.046
107. ALHHPPLPHPRS  0.663 ± 0.084
108. SGVPGGSVGVPG  0.661 ± 0.028
109. ARMPQVSEIALC  0.6612 ± 0.00024
110. GCADNNRLGNVV  0.66 ± 0.011
111. KTRRHDQKMEKI  0.659 ± 0.026
112. TCERGGQIKCRV  0.657 ± 0.058
113. ALWWRVGCGVGL  0.657 ± 0.042
114. PRSTLLPRSSSC  0.654 ± 0.028
115. LPSASPPSPPPP  0.652 ± 0.037
116. GRPLRAPPPPSP  0.65 ± 0.043
117. HQSISLSGAMLT  0.65 ± 0.0088
118. APRPRSPLLPPA  0.648 ± 0.019
119. EVMAIISTRILG  0.647 ± 0.07
120. SRTLYERTRFVL  0.647 ± 0.018
121. LRCVPAVFFACK  0.647 ± 0.045
122. STTPASLLGHVF  0.6441 ± 0.0061
123. PFVFRPGPVPRV  0.643 ± 0.1
124. NMGRCEGGKTAR  0.643 ± 0.016
125. KKKNKKQNKAKK  0.6396 ± 0.0023
126. GGSFRLLAVVFP  0.635 ± 0.044
127. SAIGVGGVGTGG  0.633 ± 0.039
128. GILYFPAGHHAG  0.627 ± 0.035
129. IRPNLERKIKVR  0.6226 ± 0.0014
130. PSTLQPLQRSPR  0.617 ± 0.0014
131. GWLGVRVCLAQR  0.616 ± 0.0081
132. CSRFPGSVRVVS  0.615 ± 0.012
133. KKDQEKEKKGKE  0.613 ± 0.015
134. TFLFARLSFCKH  0.613 ± 0.0071
135. KTRHMQGNRVDS  0.603 ± 0.045
136. ITIPISGLQVGV  0.591 ± 0.027
137. LVPWSGCSALLV  0.585 ± 0.014
138. PLCPPPLPTPPP  0.5849 ± 0.0028
139. GLFFISLFFPFL  0.575 ± 0.0096
140. RTKTQGKKRRQN  0.57 ± 0.032
141. GTCGDRGRGGER  0.559 ± 0.023
142. IVSVSLYLYHFR  0.548 ± 0.0059
143. GVGRVGLACFVV  0.542 ± 0.029
144. VVGVCLDIVCSP  0.519 ± 0.013
145. VACFASRVLCRG  0.503 ± 0.024
146. FPSFSLIFFSLI  0.489 ± 0.074
